Reference: patent US6673332 (University of California, dated 2004)

B4: GST-TPR (GST fusion protein of the TPR domains of KLC1, amino acids 167-541) (other, UniProt O88447 167-541, looked up)
chain: KDSDSSKEPLDDLFPNDEDEPGQGIQHSDSSAAAARQGYEIPARLRTLHNLVIQYASQGRYEVAVPSCKQALEDLEKTSGHDHPDVATMLNILALVYRDQNKYKDAANLLNDALAIREKTLGRDHPAVAATLNNLAVLYGKRGKYKEAEPLCKRALEIREKVLGKDHPDVAKQLNNLALLCQNQGKYEEVEYYYQRALGIYQTKLGPDRTPNVAKTKNNLASCYLKQGKFKQAETLYKEILTRAHEAEFGSVDDENKPIWMHAEEREECKGKQKDGSAFGEYGGWYKACKVDSPTVTTTLKNLGALYRRQGKFEAAETLEEAAMRSRKQGLDNVHKQRVAEVLNDPESMEKRRSRESLNMDVVKYESGPDGGEEA
notes: range 167-541; The range is printed without a hyphen (167541); not shown: glutathione S-transferase

Tests used:
[1] = molecular target: T1, GFP alone (UniProt P42212 1-238 = GFP, limits assumed); experiment: GST pull-down on glutathione agarose beads, Western blot for GFP; also under five buffer conditions
T1 construct: Control
Description: (§1) Briefly, purified GST, GST-KLC1 and GST-KLC2 bound to glutathione agarose beads were incubated with 10 μg of indicated purified fusion protein in 150 μl Buffer B (20 mM Tris-Cl, pH 7.5, 50 mM KCl, 100 mM NaCl, 2 mM CaCl_2, 2 mM MgCl_2, 5 mM DTT, 1% BSA, and protease inhibitors) for 1 hr at 4° C. For the antibody inhibition experiments, the antibody was pre-bound to the beads for 1 hr at 4° C. and then incubated for 1 hr with the indicated protein. The unbound protein (in 150 μl total volume) was saved, and the beads were washed three times with Buffer B. Bound proteins were eluted with 50 μl of elution buffer (50 mM glutathione, 50 mM Tris-Cl, pH 8.0). The bound (50 μl) and unbound (50 μl, i.e., one-third of total volume) proteins were then analyzed by SDS-PAGE followed by Western blotting.
In addition, the binding of APP-GFP or GFP alone to either GST-KLC1 or GST using four other buffers than Buffer B, namely (1) Buffer B without Ca^2+, (2) Buffer B+500 mM NaCl+1% NP-40, (3) Buffer A from sucrose gradients (10 mM HEPES, pH 7.3, 0.5 mM EGTA, 0.5 mM EGTA, 0.5 mM MgCl_2, and (4) PBS (137 mM NaCl, 2.7 mM KCl, 4.3 mM Na_2HPO_4 7 H_2O, 1.4 mM KH_2PO_4) were tested.
To test for direct interactions between the cytoplasmic C-terminal domain of APP and KLC, in vitro binding assays using GST fusion proteins were conducted. […]

[2] = molecular target: APP (amyloid precursor protein), endogenous, from mouse brain and sciatic nerve extracts (mouse, UniProt P12023 18-770, limits assumed); experiment: co-immunoprecipitation from mouse brain and sciatic nerve extracts, Western blot
Text: Mouse brain (left side of panel; IP brain) or sciatic nerve (right side of panel; Supe) extracts were immunoprecipitated with a no antibody control (No Ab), the 63–90 antibody (which recognizes both KLC1 and KLC2; i.e., kinesin light chains 1 and 2), antibodies to KIF5B (ubiquitous KHC), or APP (C-terminal polyclonal antibody) or synaptotagmin (SYT). Panel B provides results showing the specificity of kinesin-I co-immunoprecipitation with APP. Co-immunoprecipitation of APP with KLC from wild-type (wt) and mutant (−/−) KLC1 brain extracts was done using 63–90 or antibodies specific to either KLC1 or KLC2, and then analyzed by Western blots using either 63–90 or APP (22C11) antibodies. Panel C provides results showing KLC1 dependence of KHC complexes with APP. Co-immunoprecipitation of APP with KHC from wild-type (wt) and mutant (−/−) KLC1 brain extracts were performed using antibodies to three different KHC subunits (KIF5A, KIF5B and KIF5C), and then analyzed by Western blots using either 63–90 or APP (22C11) antibodies, as shown in this Panel. […]
Sufficient quantities of either anti-KLC1 and anti-KLC2 (Rahman et al., [1998], supra), or anti-KIF5A and anti-KIF5B antibodies (Niclas et al., Neuron 12:1059–1072 [1994]) were added to the precleared lysate so as to completely immunoprecipitate the antigens in the lysate. […]

[3] = molecular target: T2, APP-GFP fusion protein (C-terminal 42 amino acids of human APP fused to GFP, from a His-tagged pRSETb-EGFP … (human, UniProt P05067 729-770; P42212 1-238 = GFP); experiment: GST pull-down, Western blot for GFP
T2 construct: Expressed in bacteria, purified on Ni-NTA-agarose; also called C-terminal tail of APP fused to GFP; APP C-terminus; not shown: His tag and leader of the pRSETb vector
Description: as §1
(§2) To test directly if the C-terminus of APP interacts with the TPR domains of KLC, GST pull-down assays were conducted using GST fusion proteins of KLC1 that contained either the TPR domains (GST-TPR) or only the N-terminal coiled-coil region (GST-CC) (See, FIG. 5, Panel E). Purified APP-GFP protein bound to GST-TPR and not to GST-CC or to GST alone. In contrast, a KIF5B construct that contains part of a region previously found to bind to KLC (Diefenbach et al., [1998], supra; and Gauger and Goldstein, [1993], supra) bound to GST-CC, and not to GST-TPR.

[4] = molecular target: T1, GFP alone; experiment: GST pull-down, Western blot for GFP
Description: as §1, §2

[5] = molecular target: B4; experiment: GST pull-down, Western blot for the His tag
Description: as §1, §2

[6] = molecular target: T1, GFP alone; experiment: GST pull-down on glutathione agarose beads, Western blot for GFP
Description: as §1
To test for direct interactions between the cytoplasmic C-terminal domain of APP and KLC, in vitro binding assays using GST fusion proteins were conducted. The results are shown in FIG. 5, Panel A. GST fused to full-length KLC1 (GST-KLC1) or full-length KLC2 (GST-KLC2) was incubated with a protein consisting of the C-terminal tail of APP fused to GFP (APP-GFP). APP-GFP bound to both GST-KLC1 and GST-KLC2 but not to GST alone. […]

B1: GST-KLC1 (glutathione S-transferase fused to kinesin light chain 1, all but the first seven amino acids) (other, UniProt O88447 8-541, looked up, not shown: a dimerising Fc or GST)
chain: MVYIKEEKLENVTQDEIISKTKQVIQGLEALKNEHNSILQSLLETLKCLKKDDESNLVEEKSSMIRKSLEMLELGLSEAQVMMALSNHLNAVESEKQNVRAQVRRLCQENQWLRDELANTQQKLQKSEQSVAQLEEEKKHLEFMNQLKKYDDDISPSEDKDSDSSKEPLDDLFPNDEDEPGQGIQHSDSSAAAARQGYEIPARLRTLHNLVIQYASQGRYEVAVPSCKQALEDLEKTSGHDHPDVATMLNILALVYRDQNKYKDAANLLNDALAIREKTLGRDHPAVAATLNNLAVLYGKRGKYKEAEPLCKRALEIREKVLGKDHPDVAKQLNNLALLCQNQGKYEEVEYYYQRALGIYQTKLGPDRTPNVAKTKNNLASCYLKQGKFKQAETLYKEILTRAHEAEFGSVDDENKPIWMHAEEREECKGKQKDGSAFGEYGGWYKACKVDSPTVTTTLKNLGALYRRQGKFEAAETLEEAAMRSRKQGLDNVHKQRVAEVLNDPESMEKRRSRESLNMDVVKYESGPDGGEEA
notes: range 8-end; also called GST fused to full-length KLC1
- binding result [1]: no binding

B2: synaptophysin, endogenous, mouse extracts (other, UniProt Q62277 1-314, looked up)
chain: MLLLADMDVVNQLVAGGQFRVVKEPLGFVKVLQWVFAIFAFATCGSYTGELRLSVECANKTESALNIEVEFEYPFRLHQVYFDAPSCVKGGTTKIFLVGDYSSSAEFFVTVAVFAFLYSMGALATYIFLQNKYRENNKGPMMDFLATAVFAFMWLVSSSAWAKGLSDVKMATDPENIIKEMPMCRQTGNTCKELRDPVTSGLNTSVVFGFLNLVLWVGNLWFVFKETGWAAPFMRAPPGAPEKQPAPGDAYGDAGYGQGPGGYGPQDSYGPQGGYQPDYGQPASGGGGGYGPQGDYGQQGYGQQGAPTSFSNQM
notes: also called SYP
- binding result [2]: no binding

B3: GST-CC (GST fusion protein of the N-terminal coiled coil domain of KLC, amino acids 30-200) (other, UniProt O88447 30-200, looked up)
chain: QVIQGLEALKNEHNSILQSLLETLKCLKKDDESNLVEEKSSMIRKSLEMLELGLSEAQVMMALSNHLNAVESEKQNVRAQVRRLCQENQWLRDELANTQQKLQKSEQSVAQLEEEKKHLEFMNQLKKYDDDISPSEDKDSDSSKEPLDDLFPNDEDEPGQGIQHSDSSAAA
notes: range 30-200; not shown: glutathione S-transferase
- binding result [3]: no binding
- binding result [4]: no binding

Binder: B4
- binding result [4]: no binding

B5: KIF5B-His fusion protein (amino acids 499-783 of KIF5B, His-tagged, pET-23b) (other, UniProt Q61768 499-783, looked up)
chain: AVNYDQKSQEVEDKTKEYELLSDELNQKSATLASIDAELQKLKEMTNHQKKRAAEMMASLLKDLAEIGIAVGNNDVKQPEGTGMIDEEFTVARLYISKMKSEVKTMVKRCKQLESTQTESNKKMEENEKELAACQLRISQHEAKIKSLTEYLQNVEQKKRQLEESVDSLGEELVQLRAQEKVHEMEKEHLNKVQTANEVKQAVEQQIQSHRETHQKQISSLRDEVEAKEKLITDLQDQNQKMVLEQERLRVEHERLKATDQEKSRKLHELTVMQDRREQARQDLK
notes: range 499-783; also called C-terminal stalk of KIF5B; KIF5B construct; not shown: His tag of vector pET-23b
- binding result [5]: no binding

B6: GST-KLC2 (glutathione S-transferase fused to kinesin light chain 2, 591 amino acids of the largest cDNA clone) (other, UniProt O88448 9-599, looked up, not shown: a dimerising Fc or GST)
chain: EEKLSQDEIVLGTKAVIQGLETLRGEHRALLAPLASHEAGEAEPGSQERCLLLRRSLEAIELGLGEAQVILALSSHLGAVESEKQKLRAQVRRLVQENQWLREELAGTQQKLQRSEQAVAQLEEEKQHLLFMSQIRKLDEMLPQEEKGDVPKDSLDDLFPNEDEQSPAPSPGGGDVAAQHGGYEIPARLRTLHNLVIQYASQGRYEVAVPLCKQALEDLEKTSGHDHPDVATMLNILALVYRDQNKYKDAAHLLNDALAIREKTLGKDHPAVAATLNNLAVLYGKRGKYKEAEPLCKRALEIREKVLGKFHPDVAKQLSNLALLCQNQGKAEEVEYYYRRALEIYATRLGPDDPNVAKTKNNLASCYLKQGKYQDAETLYKEILTRAHEKEFGSVNGENKPIWMHAEEREESKDKRRDRRPMEYGSWYKACKVDSPTVNTTLRTLGALYRPEGKLEAAHTLEDCASRSRKQGLDPASQTKVVELLKDGSGRGHRRGSRDVAGPQSESDLEESGPAAEWSGDGSGSLRRSGSFGKLRDALRRSSEMLVRKLQGGGPQEPNSRMKRASSLNFLNKSVEEPVQPGGRVFLTAAL
notes: also called GST fused to full-length KLC2
- binding result [6]: no binding
